Target: porcine brain tubulin (microtubules) (porcine)
Assay: microtubule-capping assay with TIRF microscopy; Taxol-, docetaxel- or GMPCPP-stabilized microtubules held on the coverslip through biotin–neutravidin; γ-TuC (GCP3–GFP) in solution; 5 µM tubulin, 50 mM KCl, MRB80, 30 °C; capped if γ-TuC stayed bound for at least 2 min

Substance: γ-tubulin-containing complexes (complete and incomplete γ-TuRC) purified using GCP3–GFP–SII (from UniProt Q96CW5 1-907; Q9BSJ2 1-902; Q9UGJ1 1-667; Q96RT8 1-1024; Q96RT7 1-1819; P23258 1-451)
- capping efficiency (percent of minus ends capped by γ-TuC): 30 to 60%

Source: PMC10940162
